± gives the uncertainty stated by the source.
Assay: amyloid nucleation score (Sup35N fusion, yeast selection) (log enrichment); library NNK3; higher = more nucleation; inactive = no reads after selection
Procedure, shortened: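 DiMSum was used to calculate nucleation scores as log enrichment of output over input reads, centred on the mode score of non-aggregating sequences. Sequences with fewer than 100 input reads were not scored. Input and output came from Illumina sequencing of plasmid inserts in psi-negative yeast expressing peptides of 20 random codons fused to Sup35N, induced 24 hours with 100 μM copper sulfate and then grown 7 days at 30°C on medium lacking adenine and uracil.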

Amyloid nucleation score, -0.664 ± 1.1:
SCYNYCRCVCPNVEASHTSL

Amyloid nucleation score, 1.73 ± 0.073:
SCIYMSC

Amyloid nucleation score, 1.35 ± 0.089:
SAQFRFKSSV

Amyloid nucleation score, -0.377 ± 0.98:
SEDLRETWGSSA

Amyloid nucleation score, 1.2 ± 0.13:
RVNILFNFFCHTVW

Amyloid nucleation score, 0.656 ± 0.28:
SCSWVREWYRRLHRWGCGQW

Amyloid nucleation score, -0.457 ± 0.5:
RVCYEFKYKIKYVLD

Amyloid nucleation score, -0.041 ± 0.31:
RWCDA

Amyloid nucleation score, 0.408 ± 0.29:
SDQFLIMEDSCSTPGRRSFK

Amyloid nucleation score, 2.46 ± 0.081:
RYGTVDCIYCFMDLGVRDTG

Amyloid nucleation score, -0.195 ± 0.59:
RSIGIAFLGIVGVYNMLASQ

Amyloid nucleation score, inactive:
RSCVLMVASVSNRNRPGDVS
RSDNESGNV
RSFSECWCWISKLVGYLGVT
RSFVVESPDKYHPIVMFGTD
RSGHRGHYKFEL
RSKWRCRTLVDWRLQV
RSPYNFCKALRMGWVTNKIS
RSRKVNWCSLFVVVSHVGWK
RSRNAAVDFCLPSSPWSSSV
RSRVRKRYWLTACP
RSSDYNRLHRSFSCNG
RSSWK
RSVAVITRCSNNGRSHKC
RSVGYRTAVMRHLYIMMN
RSWESV
RSWSLCIGFMFFVRNS
RTCAYRMESVHVVRVSAGIM
RTINWASCQSWLKVTSPKGL
RTKYSQYHTGVSFDGSMHYS
RTLTSDTHIRFLDQLSRYIW
RTSRT
RTSVISISSLILALRGLYSR
RTVELEIHGLHV
RTYHSLVSSEERRWKLKHCY
RVATGVVCMM
RVIGKCPHSRNCTPA
RVIYG
RVMRMLSIVWFRWNEIVIFL
RVMWYGGCCWSVIYCHRLGV
RVNRCLLMMVDALYQNCTLN
RVPCNETELCMFYRSGLLLL
RVPIYVHKI
RVRNSCSVIGMWMLVYSRMI
RVSSHISSCGYDFCLWVEA
RVTTMLSFVR
RVVPL
RVVYLHNSVRLSLDVNPIAV
RWSGHTWTCVQDRMVCICNS
RWSHDMSCE
RYADMSTMNAS
RYEVPGTSFLNM
RYFKIPF
RYFPTV
RYFVRYVRSVLTSG
RYGTLGDLV
RYLFRFYSRDVVSMMQ
RYLNVVPLLPCYMIWFPRVS
RYLTNLWNYTFLINRAMLTY
RYMFVVRTMPV
RYNNYTSESGPCN
RYPTDSVWGIGSGLVN
RYRGFNVVVLIGKDRVGSAM
RYRGMGQNMT
RYRSVNVYWIAVLRTWSAVI
RYSRWLGT
RYTNAYRQASLRV
RYVIIMS
RYVIV
RYYDLVSLVQARDEVCTIHD
SAECSVPEYVHRHKVIWHGL
SAGISYFCDILKSTYAVFAV
SAGLKS
SAHEFIVDCRYESIRMFVII
SAKSRFSRIVSRFYHMVICA
SARSGAAISTSSNKVTPVYT
SAVLPLALVGHDTPNRAQLN
SAWQPWMKDRSS
SCIYTMAIRNNKVRCYFRAG
SCLHHFMEDSEPMNMGRVVK
SCLHSSSFCKR
SCLHYVTVY
SCRCR
SCTELFTPKGR
SCTLYAHALCPEQISPQFLH
SCVLTFGFLILLRVPSYSRI
SCYTMAFPVLWVHAQYCMNK
SDCYCNSQAVAWLFDRVFVF
SDEGRAIPSATPFWEYCLMW
SDGSNKVLESRCDSLHNVIV
SDIGVCSLKICSTIILVANM
SDIHMMRCGVWLKNLMFMRK
SDLFVSVFM
SDLYDVVEPVAMVTCDSKEK
SDSDMNKNMHMDSTHGRAMD
SDWRRISVLIMFTEARSFLV
SDYLFSQRGFVGSASCVLVM
SDYTYFYM
SEASYIIIFSGFSGFMPKLG
SEISWQVLCKNEDEYCHFWE
SELLPNYTKGVLTGDIYSRY
SELTEVTSITDWF
SENGECKATVLCMLSSPVVC
SENMTGFLNRTSIISPWTYC
SESMDGNFQKCLSAVCALIE
SFFDYAHRASSVFLGIFPEP
SFFKNGGELVMSCVSVSPDI
SFFTYRPQMMRCLSAIYTRM
SFGLWTGFGVMYVRIVDVTH
SFGSFMSHDEFSNVHSVGFP
SFHTDTPLMRHYIMRFYNDY
SFKAWIWSSMIAVGLTQRYS
SFKDCSVDSWFGSIIG
SFKMSVVAGVRTLGIFVWVF
SFKNNL
SFKTF
SFLRYNKSY
SFMLVFNDSAWLTSAHVYWA
SFPINGYMFSGYLERWCFTS
SFSDYEDMAQHLAPEAYNKC
SFSFVDLGIHYLMCNDSKIT
SFSFVQGSVPSTSFGSLKLA
SFSFVVPQARYFPTC
SFSKNVVDL
SFSLKPTDYIFIIVRSRRNP
SFYGHVHMDTCCN
SFYNCTEVETHGRRICIFLY
SGAEDFQV
SGATLLC
SGATVLSLSMY
SGFILSCMLNPGTFTNDLMG
SGFYRENARILTV
SGGNLWGFVDTLFIGMRIRY
SGISFTCMRHEMVSLTGGL
SGKHPSYNREPKGSVSVLGA
SGLDMRYHWNFVICQATRSY
SGLKMCYLSTGEKSAHAGEV
SGLSDPPPLLE
SGMLDWDWVSRVSIGVCKVW
SGRRCKAICA
SGRVSTDEKLVKFLRN

Amyloid nucleation score, 0.717 ± 0.19:
RVVNRFRNCWK

Amyloid nucleation score, 1.35 ± 0.082:
SATFRSSVTLSRHPVNNLTP

Amyloid nucleation score, 1.47 ± 0.11:
SAYWCIPIPNITIWFNFFLL

Amyloid nucleation score, 0.653 ± 0.19:
SGALAKDVSVGVCVRPARLY

Amyloid nucleation score, 0.676 ± 0.2:
SDLASASFCGH

Amyloid nucleation score, -0.743 ± 0.82:
SCSFRVYYFRLYFMLRSGSV

Amyloid nucleation score, -0.684 ± 1.1:
SAREKIVLRVS

Amyloid nucleation score, 0.264 ± 0.62:
SFLWGFCRTKETGGSFMFNR

Amyloid nucleation score, 3.09 ± 0.061:
SCFCC

Amyloid nucleation score, 0.184 ± 0.32:
SCVVFGSQTLRVVFFDRVSS

Amyloid nucleation score, 0.501 ± 0.33:
SCFKDDCVGLLYYQSWSNDS

Amyloid nucleation score, 0.291 ± 0.23:
RYLILMDCFR

Amyloid nucleation score, -0.55 ± 1.4:
SEAIFMVVGVRYEMELRWM

Amyloid nucleation score, 2.63 ± 0.055:
RSCMQLVCTCPFTGTTSRMI

Amyloid nucleation score, 0.069 ± 0.38:
SASGGFVLFLWLVCEGTFAG

Amyloid nucleation score, 1.1 ± 0.11:
RVTCLFFNPRRTTNYSSSVG

Amyloid nucleation score, 2.56 ± 0.059:
SFFIALVNIFRCLN

Amyloid nucleation score, 0.446 ± 0.13:
RVFGLMYSQREMCTWSVRNR

Amyloid nucleation score, 1.27 ± 0.12:
RYNRDGMTYMSISFPRGPYL

Amyloid nucleation score, 0.089 ± 0.54:
RSSDVRQYTLMCNWSKHVVL
